B1: Fv-4-N434H (antibody, human IgG1, kappa)
heavy: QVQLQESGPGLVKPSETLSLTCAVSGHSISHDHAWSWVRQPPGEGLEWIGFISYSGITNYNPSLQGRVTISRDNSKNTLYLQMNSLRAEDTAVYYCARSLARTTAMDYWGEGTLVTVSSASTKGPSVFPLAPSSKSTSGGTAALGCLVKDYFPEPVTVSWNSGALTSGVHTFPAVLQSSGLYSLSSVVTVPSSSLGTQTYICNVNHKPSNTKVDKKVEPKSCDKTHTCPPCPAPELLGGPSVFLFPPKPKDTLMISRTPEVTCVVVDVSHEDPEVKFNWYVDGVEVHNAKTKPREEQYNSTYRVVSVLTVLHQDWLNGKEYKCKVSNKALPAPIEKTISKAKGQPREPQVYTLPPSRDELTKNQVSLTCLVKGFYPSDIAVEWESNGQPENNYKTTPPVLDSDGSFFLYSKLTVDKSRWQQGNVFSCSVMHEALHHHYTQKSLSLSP
light: DIQMTQSPSSLSASVGDSVTITCQASTDISSHLNWYQQKPGKAPELLIYYGSHLLSGVPSRFSGSGSGTDFTFTISSLEAEDAATYYCGQGNRLPYTFGQGTKVEIERTVAAPSVFIFPPSDEQLKSGTASVVCLLNNFYPREAKVQWKVDNALQSGNSQESVTEQDSKDSTYSLSSTLTLSKADYEKHKVYACEVTHQGLSSPVTKSFNRGEC
B2: Fv-4-F1173 (antibody, human IgG1, kappa)
heavy: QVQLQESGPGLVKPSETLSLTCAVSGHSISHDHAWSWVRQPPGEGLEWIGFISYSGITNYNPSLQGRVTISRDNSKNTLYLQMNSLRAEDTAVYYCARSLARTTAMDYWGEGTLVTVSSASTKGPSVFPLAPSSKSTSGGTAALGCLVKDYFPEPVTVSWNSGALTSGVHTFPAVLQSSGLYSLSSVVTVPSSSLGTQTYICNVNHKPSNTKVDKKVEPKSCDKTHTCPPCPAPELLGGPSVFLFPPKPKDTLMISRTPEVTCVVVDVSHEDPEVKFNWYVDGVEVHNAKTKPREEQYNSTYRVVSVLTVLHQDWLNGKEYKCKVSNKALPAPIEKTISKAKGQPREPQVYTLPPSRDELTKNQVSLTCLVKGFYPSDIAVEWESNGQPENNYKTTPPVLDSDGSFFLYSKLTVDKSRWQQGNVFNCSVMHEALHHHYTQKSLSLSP
light: B1 light
B3: Fv-4-F1166 (antibody)
heavy: QVQLQESGPGLVKPSETLSLTCAVSGHSISHDHAWSWVRQPPGEGLEWIGFISYSGITNYNPSLQGRVTISRDNSKNTLYLQMNSLRAEDTAVYYCARSLARTTAMDYWGEGTLVTVSSASTKGPSVFPLAPSSKSTSGGTAALGCLVKDYFPEPVTVSWNSGALTSGVHTFPAVLQSSGLYSLSSVVTVPSSSLGTQTYICNVNHKPSNTKVDKKVEPKSCDKTHTCPPCPAPELLGGPSVFLFPPKPKDTLYITREPEVTCVVVDVSHEDPEVKFNWYVDGVEVHNAKTKPREEQYNSTYRVVSVLTVLHQDWLNGKEYKCKVSNKALPAPIEKTISKAKGQPREPQVYTLPPSRDELTKNQVSLTCLVKGFYPSDIAVEWESNGQPENNYKTTPPVLDSDGSFFLYSKLTVDKSRWQQGNVFSCSVMHEALHNHYTRKELSLSP
light: B1 light
B4: Fv-4-F1167 (antibody, human IgG1, kappa)
heavy: B3 heavy with S426N, R440Q, E442S
light: B1 light
B5: Fv-4-F1171 (antibody, human IgG1, kappa)
heavy: B3 heavy with Y254M, T256S, E258T, S426N, M430L, N436S, R440Q, E442S
light: B1 light
B6: Fv-4-F1172 (antibody)
heavy: B3 heavy with Y254M, T256S, E258T, N436H
light: B1 light
B7: Fv-4-F1323 (antibody)
heavy: B3 heavy with L237R, S241K, E258T, H435D, N436Y, Y438V, R440K
light: B1 light
B8: Fv-4-F939 (antibody, human IgG1, kappa)
heavy: B3 heavy with L237R, S241K, T256S, E258T, N436Y, Y438V, R440Q, E442S
light: B1 light
B9: Fv-4-F1245 (antibody)
heavy: B3 heavy with L237R, S241K, N436Y, Y438V
light: B1 light
notes: L235R/S239K/M252Y/S254T/T256E/N434Y/Y436V/Q438R/S440E (EU)
B10: Fv-4-F1321 (antibody)
heavy: B3 heavy with L237R, S241K, E258T, N436Y, Y438V, R440K
light: B1 light
B11: Fv-4-F1291 (antibody, human IgG1, kappa)
heavy: B3 heavy with L237R, S241K, T256S, E258T, H435D, N436Y, Y438V, R440Q, E442S
light: B1 light
B12: Fv-4-F1243 (antibody)
heavy: B3 heavy with L237R, S241K, E258T, N436Y, Y438V
light: B1 light
notes: L235R/S239K/M252Y/S254T/N434Y/Y436V/Q438R/S440E (EU)
B13: Fv-4-F1269 (antibody)
heavy: B3 heavy with L237R, S241K, T256S, E258T, H435D, N436Y, Y438V, R440K, E442D
light: B1 light
B14: Fv-4-F1268 (antibody)
heavy: B3 heavy with L237R, S241K, T256S, E258T, H435D, N436Y, Y438V
light: B1 light
B15: Fv-4-F1340 (antibody)
heavy: B3 heavy with L237R, S241K, N436Y, Y438V, R440K
light: B1 light
B16: Fv-4-F1115 (antibody, human IgG1, kappa)
heavy: B3 heavy with T256S, E258T, S426N, N436Y, Y438V, R440Q, E442S
light: B1 light
B17: Fv-4-F890 (antibody, human IgG1, kappa)
heavy: B3 heavy with T256S, E258T, N436Y, Y438V, R440Q, E442S
light: B1 light
notes: M252Y/N434Y/Y436V (EU)
B18: Fv-4-F11 (antibody, human IgG1, kappa)
heavy: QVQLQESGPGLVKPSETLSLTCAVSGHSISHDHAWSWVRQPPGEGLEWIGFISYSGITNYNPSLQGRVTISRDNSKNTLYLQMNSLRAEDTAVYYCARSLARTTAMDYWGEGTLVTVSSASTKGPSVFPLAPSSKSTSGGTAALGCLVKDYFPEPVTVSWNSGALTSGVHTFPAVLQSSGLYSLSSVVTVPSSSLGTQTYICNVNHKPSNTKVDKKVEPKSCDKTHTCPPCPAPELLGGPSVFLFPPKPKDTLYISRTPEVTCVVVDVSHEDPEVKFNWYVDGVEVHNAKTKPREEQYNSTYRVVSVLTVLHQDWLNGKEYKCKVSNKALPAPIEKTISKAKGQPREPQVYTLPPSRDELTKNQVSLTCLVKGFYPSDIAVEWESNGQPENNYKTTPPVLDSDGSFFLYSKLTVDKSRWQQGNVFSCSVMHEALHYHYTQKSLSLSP
light: B1 light
notes: VH3-F11 (M252Y/N434Y) and VL3-CK
B19: Fv-4-F890 (antibody, human IgG1, kappa)
heavy: B3 heavy with T256S, E258T, N436Y, Y438V, R440Q, E442S
light: B1 light
notes: VH3-F890 (M252Y/N434Y/Y436V) and VL3-CK; also called Fv-4-890
B20: Fv-4-F1391 (antibody, human IgG1, kappa)
heavy: B3 heavy with Y254M, T256S, E258T, M430L, N436S, Y438N, R440Q, E442S
light: B1 light
B21: Fv-4-F1390 (antibody, human IgG1, kappa)
heavy: B3 heavy with Y254M, T256S, E258T, M430L, N436S, Y438H, R440Q, E442S
light: B1 light
B22: Fv-4-F1389 (antibody, human IgG1, kappa)
heavy: B3 heavy with Y254M, T256S, E258T, M430L, N436S, Y438T, R440Q, E442S
light: B1 light
notes: M428L/N434S/Y436T (EU)
B23: Fv-4-F1392 (antibody, human IgG1, kappa)
heavy: B3 heavy with Y254M, T256S, E258T, M430L, N436S, Y438K, R440Q, E442S
light: B1 light

Positions count from the first letter of the chain named. Names may count otherwise.

In the first experiment the target is T1, soluble human FcRn (human, UniProt P55899 24-297; P61769 21-119).
T1 construct: Heterodimer of alpha chain and beta2-microglobulin; also called hFcRn
T1 sequence (P55899 24-297 limits assumed, chain 1 of 2): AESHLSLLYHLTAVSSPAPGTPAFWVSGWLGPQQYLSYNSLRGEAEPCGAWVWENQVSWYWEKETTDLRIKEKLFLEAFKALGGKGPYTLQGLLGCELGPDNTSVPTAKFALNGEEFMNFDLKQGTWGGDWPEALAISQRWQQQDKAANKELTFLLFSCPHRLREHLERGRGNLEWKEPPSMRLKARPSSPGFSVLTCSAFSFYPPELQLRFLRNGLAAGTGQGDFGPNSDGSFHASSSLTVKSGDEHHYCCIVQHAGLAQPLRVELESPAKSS
T1 sequence (P61769 21-119 limits assumed, chain 2 of 2): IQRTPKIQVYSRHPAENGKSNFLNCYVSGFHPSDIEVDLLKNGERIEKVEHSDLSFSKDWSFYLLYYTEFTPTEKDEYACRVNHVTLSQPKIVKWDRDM
Kind of experiment: SPR (Biacore), pH 6.0. A general note: SPR reads the build-up and loss of mass on a sensor chip optically.
The Kd is the constant that tells how readily two partners part at equilibrium. A low value points to higher affinity. In the case of B1, the Kd was 430 nM.

With B2, the Kd was found to be 530 nM.

Molecule B3 returned a dissociation constant (Kd) of 210 nM.

B4: binding was characterised by a dissociation constant (Kd) of 250 nM.

Molecule B5 gave a Kd of 240 nM.

B6: the dissociation constant (Kd) stood at 400 nM.

Another experiment deals with T1, soluble human FcRn. In words: SPR (Biacore), pH 7.0.
With B7, binding was put at a Kd of 150 nM.

As to B8, the Kd was determined as 150 nM.

In the case of B9, the Kd came to 82 nM.

With B10, the affinity, expressed as Kd, was 100 nM.

For the molecule B11, the Kd amounted to 150 nM.

B12 returned a Kd of 130 nM.

B13 yielded a Kd of 170 nM.

B14 returned a Kd of 200 nM.

Turning to B15, binding was put at a Kd of 56 nM.

The next experiment has as its target T1, soluble human FcRn. In words: SPR (Biacore), pH 7.0. The source holds these as a separate data set.
Take B16: the Kd was determined as 130 nM.

B17: binding was characterised by a dissociation constant (Kd) of 110 nM.

The target in a further experiment is T1, soluble human FcRn. Kind of experiment: SPR (Biacore), pH 7.0. The source holds these as a separate data set.
With B17, binding was characterised by a dissociation constant (Kd) of 107 nM.

In a further experiment the target is T2, soluble human FcRn (heterodimer of FcRn alpha chain and beta2-microglobulin) (human, UniProt P55899 24-297; P61769 21-119).
T2 construct: Signal regions are part of the expressed constructs; also called hFcRn
T2 sequence (P55899 24-297 limits assumed, chain 1 of 2): as the sequence (P55899 24-297 limits assumed, chain 1 of 2) above
T2 sequence (P61769 21-119 limits assumed, chain 2 of 2): as the sequence (P61769 21-119 limits assumed, chain 2 of 2) above
In words: SPR (Biacore), hFcRn, measured in multiplicates; n=12.
In turn, B18 registered a Kd of 310 nM.

In the case of B19, the Kd worked out at 110 nM.

In the next experiment the target is T1, soluble human FcRn. In words: SPR (Biacore), pH 6.0. This is another data set of the same source.
Regarding B20, binding was put at a Kd of 420 nM.

B21 registered a Kd of 400 nM.

B22: the Kd was 68 nM.

Molecule B23 had a Kd of 270 nM.

The values are drawn from US20140363428A1 (Chugai, published 2014).
